{"source": "patent US10918700B2", "about": "“Lipid-based nanoparticles and use of same in optimized insulin dosing regimens” (SDG, Inc., priority 2019, dated 2021)", "key": {"[1]": {"test_system": "type 1 diabetes mellitus (T1DM)", "assay": "ISLE-1 26-week Phase 2b randomized double-blind trial: A1c", "format": "in vivo, human", "details": "ITT, 26 weeks", "description": "ISLE-1 was a 26-week, Phase 2b, multicenter, randomized, double-blind, non-inferiority trial.\n(§1) ISLE-1 was a 26-week, Phase 2b, multicenter, randomized, double-blind, trial in T1DM treated with multiple daily injections (MDI) of insulin.\nMain exclusion criteria were total insulin dose ≥1.5 IU/kg/day or NPH insulin as basal.\nPrandial dosing of HDV-lispro or control lispro was 15 minutes prior to the meal, and basal insulins were administered either as a single daily dose or a divided twice per day dosing, every 12 hours.\n(§2) Informed of ˜10% dilution, participants continued their current insulin parameters. Hypoglycemia was recorded on Case Report Forms (CRFs) based on subject diaries and SMBG records, subjectively investigator-judged as “mild,” “moderate,” “severe,” or “life threatening.” Blinded continuous glucose monitoring (CGM) (Dexcom G4) was used for 5-7 days to assess glucose at baseline, weeks 13 and 26. A1c, lipids, and liver enzymes were measured approximately monthly. Liver fat content MRIs were performed in a subset.\nThe intent to treat (ITT) population included all randomized subjects receiving at least one dose of study treatment. Safety analyses included all randomized subjects. […] Mean A1c change was analyzed using ANCOVA within intent-to-treat (ITT) cohort at each visit. […]"}, "[2]": {"test_system": "type 1 diabetes mellitus (T1DM)", "assay": "ISLE-1: hypoglycemia (CRF-reported and blinded CGM)", "description": "as §1, §2\nThe intent to treat (ITT) population included all randomized subjects receiving at least one dose of study treatment. Safety analyses included all randomized subjects. […] Mean A1c change was analyzed using ANCOVA within intent-to-treat (ITT) cohort at each visit. […] Poisson regression models adjusting for site as random effect compared “severe” hypoglycemia incidence rates within A1c groups, testing for baseline A1c by treatment group interaction. Event number/subject was truncated at 15, accounting for extreme outliers."}, "[3]": {"test_system": "type 1 diabetes mellitus (T1DM)", "assay": "ISLE-1: lipids, liver enzymes, liver fat MRI, adverse events", "format": "in vivo, human", "details": "over study", "description": "as §1, §2\nThe intent to treat (ITT) population included all randomized subjects receiving at least one dose of study treatment. Safety analyses included all randomized subjects. […] Mean A1c change was analyzed using ANCOVA within intent-to-treat (ITT) cohort at each visit. […] Direct likelihood models were used for treatment arm A1c comparisons, % time <54 mg/dL, bolus insulin, and basal insulin within the two A1c subgroups. Poisson regression models adjusting for site as random effect compared “severe” hypoglycemia incidence rates within A1c groups, testing for baseline A1c by treatment group interaction. Event number/subject was truncated at 15, accounting for extreme outliers."}, "[4]": {"test_system": "type 1 diabetes mellitus (T1DM)", "assay": "Continuous glucose monitoring results, Good to Great Hypoglycemia study (Table 1)", "format": "in vivo, human", "description": "A1c, lipids, and liver enzymes were measured approximately monthly. Liver fat content MRIs were performed in a subset.\nSafety analyses included all randomized subjects.\nTable 1 summarizes continuous glucose monitoring results in the Good to Great Hypoglycemia study, in terms of increased HDV-related hypoglycemia events."}, "type 1 diabetes (T1D)": {"test_system": "type 1 diabetes (T1D)", "assay": "Example 3, 6-month open label study: insulin dosing, A1C, mean daily glucose, weight", "format": "in vivo, human", "details": "61 enrollees, mean baseline A1C 7.3", "excerpt": "Subcutaneous (SC) insulin is non-physiologic, since pancreatic insulin goes first to the liver. The present study was designed to determine whether delivery of Hepatic Directed Vesicles (HDV) admixed with lispro/HUMALOG® (HDV-L) decreases hypoglycemia in well controlled patients on multiple daily injections (MDI) with type 1 diabetes (T1D) using unblinded Dexcom G6 continuous glucose monitoring (CGM).\nThis study was a 6-month (mo) open label study of prandial insulin (lispro, 3 mo, then HDV-L, 3 mo) with basal insulin degludec (TRESIBA®) and unblinded continuous glucose monitoring (CGM) in T1D with baseline A1C 6.5-8.5%. Insulin dosing, hypoglycemia, and daily glucose control were among the monitored parameters.\nIn this study the target fasting blood glucose was 80-100 mg/dL. At 3 mo subjects were randomized to −10% or −40% basal dose to encourage titration with HDV-L. Physicians titrated basal insulin weekly. A hypoglycemic event was defined as ≥15 min of CGM≤54 mg/dL."}}, "data": [{"substance": "insulin lispro", "values": [{"measurement": "Mean change in A1c baseline to Week 26", "setting": "[1]", "value": "−0.16", "unit": "%"}, {"measurement": "CRF-reported incidence of \"severe\" hypoglycemia", "setting": "[2]; baseline A1c<8.5%", "value": 21, "unit": "events/100 person-years"}, {"measurement": "time <54 mg/dL during Week 26 (median)", "setting": "[2]; baseline A1c<8.5%, CGM", "value": 0.6, "unit": "%"}, {"measurement": "CRF-reported incidence rate of \"severe\" hypoglycemia", "setting": "[2]; baseline A1c≥8.5%", "value": 97, "unit": "events/100 person-years"}, {"measurement": "percentage time <54 mg/dL during Week 26 (median)", "setting": "[2]; baseline A1c≥8.5%, CGM", "value": 2.6, "unit": "%"}, {"measurement": "change in total cholesterol", "setting": "[3]", "value": 7.3, "unit": "mg/dL"}, {"measurement": "% Time <54 mg/dL, median", "setting": "[4]; Baseline", "value": 2.1, "unit": "%"}, {"measurement": "% Time <70 mg/dL, median", "setting": "[4]; Baseline", "value": 5.8, "unit": "%"}, {"measurement": "Area above curve <54 mg/dL, median", "setting": "[4]; Baseline", "value": 0.1}, {"measurement": "Area above curve <70 mg/dL, median", "setting": "[4]; Baseline", "value": 0.9}, {"measurement": "% Time <54 mg/dL, median", "setting": "[4]; Endpoint", "value": 1.7, "unit": "%"}, {"measurement": "% Time <70 mg/dL, median", "setting": "[4]; Endpoint", "value": 5.6, "unit": "%"}, {"measurement": "Area above curve <54 mg/dL, median", "setting": "[4]; Endpoint", "value": 0.1}, {"measurement": "Area above curve <70 mg/dL, median", "setting": "[4]; Endpoint", "value": 0.7}, {"measurement": "A1C after 3 mo optimization", "setting": "type 1 diabetes (T1D)", "value": 6.9, "unit": "%"}]}]}
